43 molecules from patent publication US7304127 can be followed below.

Where “and” joins values, the source holds several entries; their conditions need not be identical. Equal entries are not always repeated.

The target in this experiment is HIV-1LAI envelope gp120 labeled with radioactive iodine (HIV-1 LAI), P03377. The experiment is described as follows: 125I-gp120, peptide array.
AFVSLKFRKNFWKLVKDI (modifications not checked) [STRL33 289-306]: the counts minus background (counts per 20 min) was 808 and 1040.
As for IFLVMAVFLLTQMPFNLM (modifications not checked) [STRL33 233-250], the counts minus background (counts per 20 min) was 386 and 772.
In the case of LLTIDRYLAVVHAVFALK (modifications not checked) [CCR5 121-138], the counts minus background (counts per 20 min) was 31.
The value for VIIKTLLHAGGFQKHRSL (modifications not checked) [STRL33 213-230] was 962 and 682; that for PVLYAFVSLKFRKNFWKL (modifications not checked) [STRL33 285-302] was 1860 and 2150.
Consider AVFALKARTVTFGVVTSV (modifications not checked) [CCR5 133-150], for which the counts minus background (counts per 20 min) was 63.
With YAMTSFHYTIMVTEAIAY (modifications not checked) [STRL33 261-278], the counts minus background (counts per 20 min) is 2690 and 2360.
The result for DRYLAVVHAVFALKARTV (modifications not checked) [CCR5 125-142] reads 62; that for TIMVTEAIAYLRACLNPV (modifications not checked) [STRL33 269-286], 140 and 272; that for TLLHAGGFQKHRSLKIIF (modifications not checked) [STRL33 217-234], 1040 and 1000.
Take GVSHQWKSSEDNSKTFSA (modifications not checked) [STRL33 313-330]: the counts minus background (counts per 20 min) is 208 and 306.
The result for IRSTHWEYYAMTSFHYTI (modifications not checked) [STRL33 253-270] reads 1570 and 1810; that for TEAIAYLRACLNPVLYAF (modifications not checked) [STRL33 273-290], 604 and 480; that for LTMIVCYSVIIKTLLHAG (modifications not checked) [STRL33 205-222], 2790 and 2650.
In the case of LMKFIRSTHWEYYAMTSF (modifications not checked) [STRL33 249-266], the counts minus background (counts per 20 min) is 934 and 950.
The value for FIGFFSGIFFIILLTIDR (modifications not checked) [CCR5 109-126] was 76.
The result for FLPLLTMIVCYSVIIKTL (modifications not checked) [STRL33 201-218] reads 1270 and 1200.
The result for LKARTVTFGVVTSVITWV (modifications not checked) [CCR5 137-154] reads 74; that for SEDNSKTFSASHNVEATS (modifications not checked) [STRL33 321-338], 524 and 434.
For the molecule SLKIIFLVMAVFLLTQMP (modifications not checked) [STRL33 229-246], the counts minus background (counts per 20 min) was 612 and 854.
The value for HWEYYAMTSFHYTIMVTE (modifications not checked) [STRL33 257-274] was 2040 and 3070; that for ACLNPVLYAFVSLKFRKN (modifications not checked) [STRL33 281-298] was 4170 and 4520.
The value for ATQMTLGFFLPLLTMIVC (modifications not checked) [STRL33 193-210] was 2370 and 2440; that for SKTFSASHNVEATSMFQL (modifications not checked) [STRL33 325-342] was 1520 and 1240.
Consider FSGIFFIILLTIDRYLAV (modifications not checked) [CCR5 113-130], for which the counts minus background (counts per 20 min) is 83.
For AGGFQKHRSLKIIFLVMA (modifications not checked) [STRL33 221-238], the counts minus background (counts per 20 min) is 340 and 260.
The result for EAISTVVLATQMTLGFFL (modifications not checked) [STRL33 185-202] reads 3970 and 3750.
The value for GYHDEAISTVVLATQMTL (modifications not checked) [STRL33 181-198] was 754 and 1180; that for QWKSSEDNSKTFSASHNV (modifications not checked) [STRL33 317-334] was 464 and 534.
The result for FFIILLTIDRYLAVVHAV (modifications not checked) [CCR5 117-134] reads 77.
Take LLTQMPFNLMKFIRSTHW (modifications not checked) [STRL33 241-258]: the counts minus background (counts per 20 min) was 2510 and 3150.
Turning to VCYSVIIKTLLHAGGFQK (modifications not checked) [STRL33 209-226], the counts minus background (counts per 20 min) was 1330 and 1140.
The result for TVVLATQMTLGFFLPLLT (modifications not checked) [STRL33 189-206] reads 2330 and 2390.
Consider SFHYTIMVTEAIAYLRAC (modifications not checked) [STRL33 265-282], for which the counts minus background (counts per 20 min) was 762 and 1030.
AYLRACLNPVLYAFVSLK (modifications not checked) [STRL33 277-294]: the counts minus background (counts per 20 min) was 1800 and 1850.
For the molecule LKFRKNFWKLVKDIGCLP (modifications not checked) [STRL33 293-310], the counts minus background (counts per 20 min) is 920 and 958.
The result for AVVHAVFALKARTVTFGV (modifications not checked) [CCR5 129-146] reads 34; that for KLICGYHDEAISTVVLAT (modifications not checked) [STRL33 177-194], 1360 and 1600.
As for CQLLTGLYFIGFFSGIFF (modifications not checked) [CCR5 101-118], the counts minus background (counts per 20 min) turned out to be 489.
The result for IYDINYYTSEPCQKINVK (modifications not checked) [CCR5 9-26] reads 228.
The result for MAVFLLTQMPFNLMKFIR (modifications not checked) [STRL33 237-254] reads 2260 and 2840; that for MPFNLMKFIRSTHWEYYA (modifications not checked) [STRL33 245-262], 2170 and 2180.
Regarding QKHRSLKIIFLVMAVFLL (modifications not checked) [STRL33 225-242], the counts minus background (counts per 20 min) is 810 and 814.
